Assay results from PMC8052441, “Structural insight into the molecular mechanism of p53-mediated mitochondrial apoptosis” (Nature Communications, 2021).

Key:
[1] = target: T1, p53-DBD (human p53 DNA-binding domain, amino acids 92-292) (human, UniProt P04637 92-292); assay: ITC; p53 protein (100 µM) titrated into 10–30 µM BCL-xL or BCL-2; 25 °C; 50 mM Tris pH 7.0, 40 mM NaCl, 1 mM TCEP; conditions: both partners purified
T1 construct: Cloned into pMAL-c5x; In the crystal (PDB 6LHD) this stretch stood fused to BCL-xL; the rows of the structure use m1 and m3 for the two halves; also called p53-A; p53-B; source: E. coli BL21 (DE3), purified (amylose, PreScission, Mono S)
T1 sequence (P04637 92-292): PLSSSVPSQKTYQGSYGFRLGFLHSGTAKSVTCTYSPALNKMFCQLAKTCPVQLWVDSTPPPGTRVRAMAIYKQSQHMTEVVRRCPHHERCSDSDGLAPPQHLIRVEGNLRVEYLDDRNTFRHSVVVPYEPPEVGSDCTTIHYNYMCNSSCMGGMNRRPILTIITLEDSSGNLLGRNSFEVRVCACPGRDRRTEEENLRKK

[2] = target: T2, p53-DT (human p53 DBD and tetramerization domain, amino acids 92-360) (human, UniProt P04637 92-360); assay: as above; conditions: both partners purified
T2 construct: human p53, DBD and tetramerization domain, amino acids 92-360; Tetramer in solution by gel filtration and cross-linking; also called wild-type p53-DT; not shown: His6, N-terminal, cleaved
T2 sequence (P04637 92-360): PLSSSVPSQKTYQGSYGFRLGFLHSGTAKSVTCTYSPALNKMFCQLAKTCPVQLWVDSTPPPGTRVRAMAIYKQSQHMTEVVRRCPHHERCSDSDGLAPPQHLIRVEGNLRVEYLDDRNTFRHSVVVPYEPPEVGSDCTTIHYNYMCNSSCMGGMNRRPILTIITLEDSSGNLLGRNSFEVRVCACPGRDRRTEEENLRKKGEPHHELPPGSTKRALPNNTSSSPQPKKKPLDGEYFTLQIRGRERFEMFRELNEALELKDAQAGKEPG

Kd [1]: 37.4 µM | Kd [2]: 4.1 µM
B1: BCL-xL (human, lacking the α1-α2 loop 45-84 and the 22 C-terminal residues), His-tagged (domain or fragment, UniProt Q07817-1 1-211, looked up)
chain: MSQSNRELVVDFLSYKLSQKGYSWSQFSDVEENRTEAPEGTESEAVKQALREAGDEFELRYRRAFSDLTSQLHITPGTAYQSFEQVVNELFRDGVNWGRIVAFFSFGGALCVESVDKEMQVLVSRIAAWMATYLNDHLEPWIQENGGWDTFVELYGNNAAAESRKGQERFN
notes: human BCL-xL lacking the disordered α1-α2 loop (amino acids 45-84) and the 22 C-terminal residues (transmembrane region); Cloned into pET-28a; also called BCL-xL-C; BCL-xL-D
